From the DeepSol protein solubility set

experiment: soluble on expression in E. coli; label from the status in PepcDB or PDB records

Question: For “MVVFDLSWTLVQADSFELLCQAAAVDADAVAEVRRCHSLGSDDDLRACAALLRGRSSTGLAERLHALIEYTDGAASVCRVLKKLGYRTTVLSPGRSFLRELVKADLGIDFVAANRHEMDSNEHFTGAILELLVNGERKAELLTMLAMREQLSPQQIIAVGDGPVSAKMLDSAGPSIAFGAPAARDGTNIGGKIQSKSLTCIWFLMGIHERDLRSFS”, which “soluble on expression in E. coli” value is on record?
Answer: soluble

Question: For “MMLITERRSPFYPNIQNVPPSVIRKLVKNKAITLIDVRQPWEYEDHHIPGSILLPLDYFKELFPLVLSKNNLVKNGVAIICEHANRSTWLVYTEPSLFKEVKVYNMLGGIELWMIMGYEIEKGMDDNGTLWYKLLTKNLGLEHHHHHH”, which “soluble on expression in E. coli” value is on record?
Answer: not soluble

Question: For “MTAVVSNREEDSMNNEPSLSGRAIIGLIYPPPDIRTIVDKTARFAAKNGVDFENKIREKEAKNPKFNFLSITDPYHAYYKKMVYDFSEGRVEAPKVPQAVKEHVKKAEFVPSAPPPAYEFSADPSTINAYDLDLIRLVALFVARNGRQFLTQLMTREARNYQFDFLKPAHCNFTYFTKLVDQYQKVLVPSTNVVAQLQDDATNKKRLIEDINYRVSWEKHQKGLKDREEAEAEKERQAYASIDWHDFVVVQTVDFQPGDTSQLPPLCTPKDVGARILLEARNEMQKAAAEMQEMDMEESDSDDEDAVQAPEAPAFTAPLPPTKQKDVIVRDYDPKRNVTQKPKAVENWIISPLTGERIPSDKLAEHVRYNTVDSQYKEDRDRHIGERSTEEPVLALGADISRNLGNFAERRTDIFGVGGEQTMIGKKLGEEDNSQQGQNKLIWDGTEETRDMITRAVQNKVTLDQQINEIHRQHGFVADPSKEKIGAQQVPRHQSTQGNVTITQGITNIPGQMPSGWPPVPPMGMPGMPNQALPPIRQMDFGGGPPAKRPRTEDDLIPEADWLKKVNGAISLNVHLPQAPEHGMDGSIVQFTIQVTAPMSELKQQIQDRYGMPVGKQKLMSDGLFVKDNMSSAFYNLADRTAIYLQVKERGGKKK”, which “soluble on expression in E. coli” value is on record?
Answer: not soluble

Question: For “MGSDKIHHHHHHMAEQPLIGKTILTTRAAGQSSPFAAQLRAAGAAVIEMPTLEIGPPSSWLPLDEAIAAIADFDWLILASANAVEAVQQRLAAQQKSWSDVPCAIAVVGQKTAQVLAAQGGKADYIPPEFIAESLVEHFPQPVAGQRLLFPRVETGGREQITQALQSQGAIVVEVPAYESRCPSQIPDDALIALRQAHLNLISFTSSKTVRNFCQLMASNLGVDWSARISGVAIASIGPQTSITCQELLGRVEVEAQEYTLDGLLLAIEQWARQTT”, which “soluble on expression in E. coli” value is on record?
Answer: not soluble

Question: For “SDWKLEGSTQKVESPVLQGQEGILEETGEDGLPEGFQLLQIDAEGECQEGEILATGSTAWCSKNVQRKQRHWEKIVAAKKSKRKQEKERRKANRAENPGICPQHSKRFLRALTKDKLLEAKHSGPRLCIDLSMTHYMSKKELSRLAGQIRRLYGSNKKADRPFWICLTGFTTDSPLYEECVRMNDGFSSYLLDITEEDCFSLFPLETLVYLTPDSEHALEDVDLNKVYILGGLVDESIQKKVTFQKAREYSVKTARLPIQEYMVRNQNGKNYHSEILAINQVFDILSTYLETHNWPEALKKGVSSGKGYILRNSVE”, which “soluble on expression in E. coli” value is on record?
Answer: soluble

Question: Which “soluble on expression in E. coli” value does the source give for “MGSHHHHHHSQDPMMSRLKTAVYDYLNDVDITECTEMDLLCQLSNCCDFINETYAKNYDTLYDIMERDILSYNIVNIKNTLTFALRDASPSVKLATLTLLASVIKKLNKIQHTDAAMFSEVIDGIVAEEQQVIGFIQKKCKYNTT” here?
Answer: soluble

Question: With “MKVKIAFTTTDRIHVNAHFGWAREIDIYEISDHGYEFLETLKFEGDLKEDGSEDKITPKLEALNGCTIVYVVAIGGSAAARLIKGGVTPVKAKSEEEKIEEVLTKLVKTLKGNPPPWLRKALQPKTLNFADEVENEATV” as the sequence, how does the “soluble on expression in E. coli” value read?
Answer: not soluble

Question: With “MYVGYLGPSGSFTHNAALKAFPEASLVSLGTITEVIKSYEEGRVDYAVIPVENSIEGSVHESLDYLFHQADIRAVAEIVQPIKQQLMASKHHAKIEKIFSHPQAIAQGKKYIKDHFPHAKIETTASTAFAARYVADNPDQPYAAIAPHAAAKEYGLEILAKDIQEIEKNYTRFWLLGSTVP” as the sequence, how does the “soluble on expression in E. coli” value read?
Answer: not soluble

Question: Which “soluble on expression in E. coli” value does the source give for “MCEIFAKQPQDNYQFITRSIRIDGHATSVKLESSFWTILEEIASAQDMTVPKFISTVYQEALEYNGEVNNFASLLRCACLTYARQPENTLHQALAQLN” here?
Answer: not soluble

Question: For “TYKKPSDAELKRTLTEEQYQVTQNSATEYAFSHEYDHLFKPGIYVDVVSGEPLFSSADKYDSGSGWPSFTRPIDAKSVTEHDDFSYNMRRTEVRSHAADSHLGHVFPDGPRDKGGLRYSINGASLKFIPLEQMDAAGYGALKSKVK”, which “soluble on expression in E. coli” value is on record?
Answer: soluble

Question: For “AHHHHHHGSAELKVSAIKEGTVIDHIPAGKGLKVIQILGLGELKNGGAVLLAMNVPSKKLGRKDIVKVEGKFLSEEEVNKIALVAPTATVNIIREYKVVEKFKVEIPDVIEGILKCGNPNCITHYEYVTPKFYVISKEPLKVRCHYCERTMEEEEILANL”, which “soluble on expression in E. coli” value is on record?
Answer: soluble

Question: With “MAHHHHHHMRVTHHNNNNERSADRPPPSPHPHSQYYRQRYSLFRKTHRHAALTCSTRSSSSSPAVQQLRVIHFFHSLRHATATQYSHTCSMRCILFSSLYLWRHRKVLQPAASWCWKKYGAATVRVSVWLYSRFNSSSTNGLAAAIPAGSFSSSPQNRGRLTGPSNGVTPCPMRSCAPPSHVPLRSRRRTQHPHAIAGKIGPST” as the sequence, how does the “soluble on expression in E. coli” value read?
Answer: soluble

Question: With “MARKLFTSESVTEGHPDKICDQISDAVLDAIFSQDPMARVACETAVTTGLVLVTGEITTNCYVDIPKIVRSTIREIGYDRAKYGFDCDTCAVLTSIDEQSPDIAMGVNKALEAKTGEMSDEEIEAIGAGDQGMMFGFACDETPELMPMPISLAHKLAMRLSQVRKNGTLNYLRPDGKSQVTVEYDGDKPVRVDTVLISTQHGPEVDYDTIKRDVIEHVIKPVIPAELLDSKTKYLVNPTGRFVIGGPQGDSGLTGRKIIVDTYGGYARHGGGAFSGKDPTKVDRSAAYAARYVAKNIVAAGLARKCEVQLAYAIGVARPVSVRVDTFGTGIIPEEKIESLVNKYFDLRPAGIIKTLDLRRPIYKQTAAYGHFGRTDIDLPWERTDKPKS” as the sequence, how does the “soluble on expression in E. coli” value read?
Answer: not soluble

Question: For “YLFSSTAVASDESRPKIGLVLAGGGAKGAAHIGVLKALEEMHIPVDYITGTSMGAYVGGLYASGMSADEIEAFIDTVDWNSGFVDKVERSERQIRDKEYEDRYQIGTDIGFSFTELKAPKGFVQGQTMAKILRTTSDNIPYLNSFDQLPIPFRAVATDIEKLEPVVLDKGNLAEAMMASMSVPGALPPAEYDGRLLVDGGVVNNMPVDVV”, which “soluble on expression in E. coli” value is on record?
Answer: not soluble

Question: With “MAHHHHHHMLFPTACPDLIAREHLFNTLLNPVVYRWMWGRLRSCFSDSEVMAYTNNLSCVSHSVVCELVNKYPHLHQHVFAGPVTVLNERKEAAVTAHAEPLMVDPVGWTRALAEVCRRDYDVQFALGERLEDAVTYLKYDVESTRSIRVSKPDPSHPEQRLFASEGYDVVILAAGASTGTMTLPNSRLPVLGLSGLSAVVQQPSGALKDAVWSLFQCRPHRSPAAAASSSSPEVDAPSSHEGVADPLARPAPGTLALLSSHCSPVWLHVAQ” as the sequence, how does the “soluble on expression in E. coli” value read?
Answer: soluble

Question: With “MEQQIADLLDEQEELDLPQEQLEAAEGESEEESEEESSQGEKFPKTRAARIQRLVRDAAVSRNVKDLYGGECQACGLRLVGPDGRPYSEGAHIRPLGKPHCGPDVEPNVLCLCPNCHVRLDIGAIIIEDDWSIIVRAGELGGNVLSKLKRKKEHHVHLDYVRYHREWWLEKGDPSQELEHHHHHH” as the sequence, how does the “soluble on expression in E. coli” value read?
Answer: soluble

Question: Which “soluble on expression in E. coli” value does the source give for “MDTQQLINAITPEAYQRLLYAVETGKWPEGTPLSQQQRDSCMQAVMLYQSKHNTQADHMSVGVGGEVVFKSKAELKKRFSEGEEDILRVNPNQEA” here?
Answer: not soluble

Question: Which “soluble on expression in E. coli” value does the source give for “MIGIVAAFEKVKIPEMGKSFGTGWLPPLPSLKDYTEESAQIPEMAEKLGIPTSRKETKTLELPVSIDFRNWCSPIEDQMDLGSCTAHAGVGVVEYFERRAFGKHIDGSRFFVYKTTRNLMGVKGDTGAWLRNTMGALALCGVPPEKYFPYTSRKTPGPDGEPTFDDEPSSFVYSLADNFEALNYFCHDPQGMNLPPEDVILSVKKYLAAGIPSMFGFYGFPSFKDTDVKGGIPFPGPDERSIWGHAVVAVGYDDNMKIRNTLSNKETTGAFLIRNSWGTAWGDKGYGWLPYEYALNKFALDFWSLISMKWVETGNFGLELESSRSRARETLSRDMPLPHALEHHHHHH” here?
Answer: soluble

Question: With “AHHHHHHGSEDIVEALKLAVTNLPEDVALALKNAYEREDYEIAKYNLEIMLRAVKTSKKEKVPLCQDTGTPIFFVETDGTWNVKEIYETIAEAVKRATDEIPLRPNAICLLSGKVVGNVPEIHIEPGKRNRISILIKGGGSENCSALFPLTPGDWFEGVKKKIIDHIRSCGGKPCPPIIVGIGIASPAERAITLAKKSLFRKIGERHEKLGWLEEEILEEINFLDIGPMGLGGKTTALDVKIEVGERHPASFIVGIAIQCWAHRRAFIEEKEDGEVVIWQ” as the sequence, how does the “soluble on expression in E. coli” value read?
Answer: soluble

Question: For “MKNPQSKADDILQCARTLIIRGGYNSFSYADISQVVGIRNASIHHHFPSKSDLVCKLVSQYRQEAEAGIAELEKNISDPLEQLRAYIGYWEGCIADATHPFCVCALLASEIPVLPETVVLEVRAHFRSLSDWLTAVLERGIAQGRLVLTGTARANAEIFMATVHGAMLSARAHGDAATFGAITRPMLERITA”, which “soluble on expression in E. coli” value is on record?
Answer: soluble

Question: Which “soluble on expression in E. coli” value does the source give for “MEAEKKKLSIPPKGIRAIIEAIRLGEIIKPSQYAKREAFKKHDVEEAWLNRVLTMIFYDIMKKQGLIDKVIKEIVGVTPLILDPWLRAALRVAVDIALFHDPSSQTIKNLRWKASDFISSRTHPYVGMYFWDLLDKIFEYKPNPKNELEELEWKYLAPSWLIERVKGILGDETEDFFRSVNKRHEWISIRVNTLKANVEEVIGELEEDGVEVVRSERVPTILKIKGPYNFDTSSAFNEGKIIVQEEASAVASIVLDPKPGETVVDLAAAPGGKTTHLAELMKNKGKIYAFDVDKMRMKRLKDFVKRMGIKIVKPLVKDARKAPEIIGEEVADKVLLDAPCTSSGTIGKNPELRWRLREDKINEMSQLQRELLESAARLVKPGGRLLYTTCSIFKEENEKNIRWFLNVHPEFKLVPLKSPYDPGFLEGTMRAWPHRHSTIGFFYALLEKSK” here?
Answer: soluble

Question: With “MGSDKIHHHHHHMSELKLPKDDRSIEVYRLSGTPVAVEKRSAADFNRVAFAAAHVVADPFADNDPWLTPAIDWEATLRFRHRLWDLGLGVAEAMDTAQRGMGLAWPQAQELISRSLKEAASRKDALIACGVGTDHLDSGGYDLNQIIDSYLEQLDFVQGEGGRVILMASRALAAAARSPDDYLKAYARVLSRAEQKVVIHWLGEMFDPALKGYWGSGDHMAAMETCLAMIEENAEKIDGIKISLLSKDKEIVMRRRLPAGVRMYTGDDFNYAELIAGDEQGHSDALLGIFDAIAPAASKALASLKRGADNEFFDILEPTVALSRHIFKAPTRFYKTGVVFLAYLNGLQDHFTMVGGQESTRSTQHFTELFRLADKANVLAEPDLATHRMKAFLAVRGIG” as the sequence, how does the “soluble on expression in E. coli” value read?
Answer: not soluble

Question: Which “soluble on expression in E. coli” value does the source give for “MGSDKIHHHHHHMTGIVTANWWTSLIYRVFVRTACLRAGRGLLPNIWEWLWRLSCNIIEGPVDITIHNRPAIVNFGYTYPIYMRCYPELNAPLVELTYQCWRSRGTAICIVDVGAAVGDTMLLLHSNLPEAVGSFVCIEGDQEFYRYLQHNLGHMTEGRLINVVVADQETEVSDLVRIHTGTASAQGERTRGASTLSAVVTEEIDLIKIDVDGFDGRVLLGAEDLLKRCRPLVIFEWHPSLCRQTGNNWTDHFDVLARCGYSRCLWFTKFGHFSHFSFGHCREEIDTLAEYCMSDVVKDWHYDVIALHDDSDLSLLLLSQLGFAKARPSRY” here?
Answer: not soluble

Question: With “MTKENTKSIADDGPYSGSFYGLAEDNANHGIFSSILKRKKRQQDKLSEDVKKRCGRVESYKSCCDRLHQALMYMLVENAVTSKQLVTGARTEPHYRYAGQYLKTYEIIANQGRDKTKYESLEPAIKALLTLDSEHEKKVRKQLENLKPLTKFIGEDYWEYVRLKKVYAESVDGYDEAVVLQNKGKTEDAETAATNAQTWMNDCRTKLMDFITVSISQQKAKHADCVLKFRDESVSYHKIMADSITTPEPAEGKSVVKTLKQ” as the sequence, how does the “soluble on expression in E. coli” value read?
Answer: not soluble
